# Reference: patent US20220235103A1 (Molecular Partners, published 2022)
# Residue numbers refer to the chain shown, from its start.
# B1: vS07_23E04 (designed binder)
# chain: MRGSHHHHHHGSDLGKKLLQAARAGQLDEVRELLKAGADVNAKDQEGITPLHVAAHQGHLEIVEVLLKAGADVNAKDVWGRTPLHLAAWRGHLEIVEVLLKAGADVNAKDHAGATPLHAAALSGHLEIVEVLLKAGADVNAQDKSGKTPADLAARAGHQDIAEVLQKAA
# notes: also called R3c
# B2: vS07_12C06 (designed binder)
# chain: B1 chain with Q45R, I48K, H56Q, Q57E, R90I, H111V, A112S, S123H, K134N
# notes: also called R1b; Rb1
# B3: vS07_29B10 (designed binder)
# chain: B1 chain with Q45R, V53L, H56Q, Q57H, R90Q, H111L, A119V, S123Y
# notes: also called R3b
# Target: SARS-CoV-2 spike protein G446V (SARS-CoV-2, UniProt P0DTC2 14-1273)
# Experiment: cell-based or functional assay
row,Binder,VSV Pseudotype Neutralization Assay IC50
1,B1,2.3 ng/mL
2,B2,1.8 ng/mL
3,B3,0.7 ng/mL

# Target: SARS-CoV-2 spike protein A222V (SARS-CoV-2, UniProt P0DTC2 14-1273)
# Experiment: cell-based or functional assay
row,Binder,VSV Pseudotype Neutralization Assay IC50
1,B1,19.5 ng/mL
2,B2,4.6 ng/mL
3,B3,3.3 ng/mL

# Target: SARS-CoV-2 spike protein G476S (SARS-CoV-2, UniProt P0DTC2 14-1273)
# Experiment: cell-based or functional assay
row,Binder,VSV Pseudotype Neutralization Assay IC50
1,B1,29 ng/mL
2,B2,3.7 ng/mL
3,B3,2.3 ng/mL
